Data published in patent publication US20240117030A1 (Pfizer, published 2024).

Experiments:
Assay in all cases: cell-based or functional assay
recombinant human IL-4 = biological target: T1, recombinant human IL-4 (human, UniProt P05112 25-153)
T1 sequence (looked up): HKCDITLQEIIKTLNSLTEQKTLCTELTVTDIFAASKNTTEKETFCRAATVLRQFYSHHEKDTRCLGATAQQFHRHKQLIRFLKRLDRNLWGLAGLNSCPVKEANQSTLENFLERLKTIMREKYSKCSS

recombinant human IL-13 = recombinant human IL-13 (human, UniProt P35225 35-146)
recombinant human IL-33 = biological target: T2, recombinant human IL-33 (human, UniProt O95760 112-270, limits assumed)
T2 sequence (looked up): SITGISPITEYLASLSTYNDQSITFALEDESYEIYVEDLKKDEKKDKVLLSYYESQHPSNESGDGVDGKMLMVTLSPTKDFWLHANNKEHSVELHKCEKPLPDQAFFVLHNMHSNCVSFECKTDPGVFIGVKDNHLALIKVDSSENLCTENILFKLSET

Chain of recombinant human IL-13 (P35225 35-146 limits assumed): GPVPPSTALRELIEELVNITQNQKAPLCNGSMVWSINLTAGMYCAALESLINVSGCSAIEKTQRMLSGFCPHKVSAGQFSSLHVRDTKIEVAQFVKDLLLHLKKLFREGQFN

| Binder | IL-4 Induced CD23 Expression, potency of cytokine neutralization (recombinant human IL-4) [nM] | IL-13 Induced CD23 Expression, potency of cytokine neutralization (recombinant human IL-13) [nM] | IL-33 WT Activation of SEAP Reporter Cells, potency of cytokine neutralization (recombinant human IL-33) [nM] |
| --- | --- | --- | --- |
| IL13433-1261 (other) heavy: EVQLVESGGGLVQPGGSLRLSCAASGFTFSSYWMYWVRQAPGKGLEWVAAITPNAGEDYYPESVKGRFTISRDNAKNSLYLQMNSLRAEDTAVYYCARGQYYYTKYSLGYWGQGTLVTVSSASTKGPSVFPLAPSSKSTSGGTAALGCLVKDYFPEPVTVSWNSGALTSGVHTFPAVLQSSGLYSLSSVVTVPSSSLGTQTYICNVNHKPSNTKVDKKVEPKSCDKTHTCPPCPAPEAAGAPSVFLFPPKPKDTLMISRTPEVTCVVVDVSHEDPEVKFNWYVDGVEVHNAKTKPREEQYNSTYRVVSVLTVLHQDWLNGKEYKCKVSNKALPAPIEKTISKAKGQPREPQVYTLPPSREEMTKNQVSLTCLVKGFYPSDIAVEWESNGQPENNYKTTPPVLDSDGSFFLYSRLTVDKSRWQQGNVFSCSVLHEALHSHYTQKSLSLSPGK chain 1: DIQMTQSPSSLSASVGDRVTITCKASESVDHFGWSLVHWYQQKPGKAPKLLIYRASNLESGVPSRFSGSGSGTDFTLTISSLQPEDFATYYCQQSNEDPWTFGGGTKVEIKRTVAAPSVFIFPPSDEQLKSGTASVVCLLNNFYPREAKVQWKVDNALQSGNSQESVTEQDSKDSTYSLSSTLTLSKADYEKHKVYACEVTHQGLSSPVTKSFNRGECGGGGSEVTLRESGPALVKPTQTLTLTCTFSGFSLSNFGEGLSWIRQPPGKGLEWLAHIYWDDDKRYNPSLKSRLTISKDTSRNQVVLTMTNMDPVDTATYYCARRETVFYWYFDVWGQGTTVTVSSASTKGPSVFPLAPSSKSTSGGTAALGCLVKDYFPEPVTVSWNSGALTSGVHTFPAVLQSSGLYSLSSVVTVPSSSLGTQTYICNVNHKPSNTKVDKKVEPKSCDKTHTCPPCPAPEAAGAPSVFLFPPKPKDTLMISRTPEVTCVVVDVSHEDPEVKFNWYVDGVEVHNAKTKPREEQYNSTYRVVSVLTVLHQDWLNGKEYKCKVSNKALPAPIEKTISKAKGQPREPQVYTLPPSREEMTKNQVSLTCEVKGFYPSDIAVEWESNGQPENNYKTTPPVLDSDGSFFLYSKLTVDKSRWQQGNVFSCSVLHEALHSHYTQKSLSLSPGK light 1: DIQMTQSPSSLSASVGDRVTITCRASQPIHNHLDWYQQKPGKAPKLLIYFGKNLQEGVPSRFSGSGSGTDFTLTISSLQPEDFATYYCFQYKKGWSFGGGTKVEIKRTVAAPSVFIFPPSDEQLKSGTASVVCLLNNFYPREAKVQWKVDNALQSGNSQESVTEQDSKDSTYSLSSTLTLSKADYEKHKVYACEVTHQGLSSPVTKSFNRGEC light 2: DIQMTQSPSSLSASVGDRVTITCRASQSVDEEGDSYMNWYQQKPGKAPKLLIYAASNLESGVPSRFSGSGSGTDFTLTISSLQPEDFATYYCQQSNKDPPTFGGGTKVEIKRTVAAPSVFIFPPSDEQLKSGTASVVCLLNNFYPREAKVQWKVDNALQSGNSQESVTEQDSKDSTYSLSSTLTLSKADYEKHKVYACEVTHQGLSSPVTKSFNRGEC chain 2: EVQLVESGGGLVQPGGSLRLSCAASGFTFSSYAMSWVRQAPGKGLEWVASISSGDTTYYPDSVKGRFTISRDNAKNSLYLQMNSLRAEDTAVYYCARNEGYYFGLTLWGQGTLVTVSSASTKGPSVFPLAPSSKSTSGGTAALGCLVKDYFPEPVTVSWNSGALTSGVHTFPAVLQSSGLYSLSSVVTVPSSSLGTQTYICNVNHKPSNTKVDKKVEPKSC | 0.0139 | 0.00897 | 0.021 |
| IL13433-1270 (other) heavy: EVQLVESGGGLVQPGGSLRLSCAASGFTFSSYWMYWVRQAPGKGLEWVAAITPNAGEDYYPESVKGRFTISRDNAKNSLYLQMNSLRAEDTAVYYCARGQYYYTKYSLGYWGQGTLVTVSSASTKGPSVFPKAPSSKSTSGGTAALGCLVKDYFPEPVTVSWNSGALTSGVHTFPAVLQSSGLYSLSSSVTVPSSSLGTQTYICNVNHKPSNTKVDKKVEPKSCDKTHTCPPCPAPEAAGAPSVFLFPPKPKDTLMISRTPEVTCVVVDVSHEDPEVKFNWYVDGVEVHNAKTKPREEQYNSTYRVVSVLTVLHQDWLNGKEYKCKVSNKALPAPIEKTISKAKGQPREPQVCTLPPSREEMTKNQVSLWCLVKGFYPSDIAVEWESNGQPENNYKTTPPVLDSDGSFFLYSKLTVDKSRWQQGNVFSCSVLHEALHSHYTQKSLSLSPGK chain 1: DIQMTQSPSSLSASVGDRVTITCKASESVDHFGWSLVHWYQQKPGKAPKLLIYRASNLESGVPSRFSGSGSGTDFTLTISSLQPEDFATYYCQQSNEDPWTFGGGTKVEIKRTVAAPSVFIFPPSDEQLKSGTASVVCLLNNFYPREAKVQWKVDNALQSGNSQESVTEQDSKDSTYSLSSTLTLSKADYEKHKVYACEVTHQGLSSPVTKSFNRGECGGGGSEVTLRESGPALVKPTQTLTLTCTFSGFSLSNFGEGLSWIRQPPGKGLEWLAHIYWDDDKRYNPSLKSRLTISKDTSRNQVVLTMTNMDPVDTATYYCARRETVFYWYFDVWGQGTTVTVSSASTKGPSVFPEAPSSKSTSGGTAALGCLVKDYFPEPVTVSWNSGALTSGVHTFPAVLQSSGLYSLGSVVTVPSSSLGTQTYICNVNHKPSNTKVDKKVEPKSCDKTHTCPPCPAPEAAGAPSVFLFPPKPKDTLMISRTPEVTCVVVDVSHEDPEVKFNWYVDGVEVHNAKTKPREEQYNSTYRVVSVLTVLHQDWLNGKEYKCKVSNKALPAPIEKTISKAKGQPREPQVYTLPPCREEMTKNQVSLSCAVKGFYPSDIAVEWESNGQPENNYKTTPPVLDSDGSFFLVSKLTVDKSRWQQGNVFSCSVLHEALHSHYTQKSLSLSPGK light 1: DIQMTQSPSSLSASVGDRVTITCRASQPIHNHLDWYQQKPGKAPKLLIYFGKNLQEGVPSRFSGSGSGTDFTLTISSLQPEDFATYYCFQYKKGWSFGGGTKVEIKRTVAAPSVFIFPPSDEQLKSGTASVSCLLNNFYPREAKVQWKVDNALQSGNSQESVTEQDSKDSTYSLDSTLTLSKADYEKHKVYACEVTHQGLSSPVTKSFNRGEC light 2: DIQMTQSPSSLSASVGDRVTITCRASQSVDEEGDSYMNWYQQKPGKAPKLLIYAASNLESGVPSRFSGSGSGTDFTLTISSLQPEDFATYYCQQSNKDPPTFGGGTKVEIKRTVAAPSVFIFPPSDEQLKSGTASVSCLLNNFYPREAKVQWKVDNALQSGNSQESVTEQDSKDSTYSLKSTLTLSKADYEKHKVYACEVTHQGLSSPVTKSFNRGEC chain 2: EVQLVESGGGLVQPGGSLRLSCAASGFTFSSYAMSWVRQAPGKGLEWVASISSGDTTYYPDSVKGRFTISRDNAKNSLYLQMNSLRAEDTAVYYCARNEGYYFGLTLWGQGTLVTVSSASTKGPSVFPLAPSSKSTSGGTAALGCLVKDYFPEPVTVSWNSGALTSGVHTFPAVLQSSGLYSLSSVVTVPSSSLGTQTYICNVNHKPSNTKVDKKVEPKSC | 0.0165 | 0.00758 | 0.012 |
